One block for each molecule: values may come before it. Ends that are not written are not given here.
Tests used:
[1] = biological target: wild-type epidermal growth factor receptor (wtEGFR) (human) (UniProt P00533); assay: Scatchard, A431 cells
[2] = biological target: wtEGFR-FLAG (N-terminally FLAG-tagged wild-type EGFR on Ba/F3 cells) (human) (UniProt P00533); assay: FACS median fluorescence, Ba/F3 cells; reference anti-FLAG M2
[3] = biological target: C271A/C283A-EGFR (full length, on Ba/F3 cells) (human) (UniProt P00533); assay: FACS median fluorescence, Ba/F3 cells, four clones; reference anti-FLAG M2
[4] = biological target: T1, 15N-labelled EGFR287-302 peptide with methionine mutated to leucine (human, not fully specified (bridges); cysteine pairing not given here; also: 15N-labelled (residues not given here)); assay: NMR, perturbation of 15N HSQC spectra
T1 peptide: CGADSYELEEDGVRKC

[5] = biological target: T2, EGFR peptide 287-302 (806 peptide epitope) (human, not fully specified (bridges); printed as 287CGADSYEMEEDGVRKC302; cysteine pairing not given here); assay: BIAcore, immobilised peptide 287-302, antibody 200 nM
T2 peptide: CGADSYEMEEDGVRKC

[6] = biological target: T3, Peptide C: LEEKKGNYVVTDH(K-Biot)-OH (biotin on the added C-terminal Lys (K-Biot)); assay: BIAcore, Peptide C on streptavidin chip
T3 peptide: LEEKKGNYVVTDHK

- binding sites per cell (sites per cell) [1]: 2e+06
- receptors per cell (receptors per cell) [1]: 2e+06
- ratio of antibody binding mAb 528/M2 [2]: 1.37
- ratio of antibody binding mAb 528/M2 [3]: 1.08
Molecule: monoclonal antibody 528

- binding result [4]: binds
B1: Fab fragment of mAb806 (Fab, V domains shown)
VH: DVQLQESGPSLVKPSQSLSLTCTVTGYSITSDFAWNWIRQFPGNKLEWMGYISYSGNTRYNPSLKSRISITRDTSKNQFFLQLNSVTIEDTATYYCVTAGRGFPYWGQGTLVTVSA
VL: DILMTQSPSSMSVSLGDTVSITCHSSQDINSNIGWLQQRPGKSFKGLIYHGTNLDDEVPSRFSGSGSGADYSLTISSLESEDFADYYCVQYAQFPWTFGGGTKLEIKR
notes: papain Fab of the intact mAb; also called Fab806

- maximal binding (RU) [5]: 800 RU
B2: monoclonal antibody 1133 (mAb1133) (antibody, V domains shown)
VH: DVQLQGSGPSLVKPSQSLSLTCTVTGYSITSDYAWNWIRQFPGNKLEWMGYISYSGNTRYNPSLRSRISITRDTSKNQFFLQLNSVTTEDTATYYCATAGRGFPYWGQGTLVTVSA
VL: DILMTQSPSSMSVSLGDTVNITCHSSQDINSNIGWLQQKPGKSFKGLIYHGTNLDDGVPSRFSGSGSGADYSLTISSLESEDFADYYCVQYGQFPWTFGGGTKLEIKR
notes: murine IgG2a

- binding result [6]: no binding (tested: 100 nM)
B3: monoclonal antibody 806 (mAb806) (antibody, V domains shown)
VH: DVQLQESGPSLVKPSQSLSLTCTVTGYSITSDFAWNWIRQFPGNKLEWMGYISYSGNTRYNPSLKSRISITRDTSKNQFFLQLNSVTIEDTATYYCVTAGRGFPYWGQGTLVTVSA
VL: DILMTQSPSSMSVSLGDTVSITCHSSQDINSNIGWLQQRPGKSFKGLIYHGTNLDDEVPSRFSGSGSGADYSLTISSLESEDFADYYCVQYAQFPWTFGGGTKLEIKR
notes: murine IgG2b; also called m806

— US20110076232A1 (published 2011)
